In a protein production outcome set (Wang et al. 2014) one finds protein production data, which are given here for four sequences.

The data set in a line: label from the status in PepcDB records.
As for “SFEIGCELEAQRELRAKQTLVGQVIDEDLMSIVYQPVWDIEAMQPLGFECLARFSPLPLRSPDKWFADAAEVGMGVELELHAIRKALQAIGRFPAPIDLSVNASAATILGGDLARLFDGVPLDRLIVEITEHSSVGNYDAILDVLRPLRQRGLRLAVDDAGAGYSSLHHILNMQPDFIKLDIGLTQNIDLDPARKALARALVGFARDTGSRIVAEGVERQSELDALRSIGVKKVQGYLLGRP”, the protein production entry is given as “failed”. In the case of “MDCRLKCTNQCTSLMMAFDKSHTIKGCSTEFSLSMTDTPILGTVKEPQRDYRTLDRQKLTPMFQHYTEVKEQYQGALLLYRVGDFFECFFQDAVIIARELELILTSKEGGKEIGRVAMTGVPHHALDRYARQLVEKGYAVAICDQVEDAAEAQAEKRMVERQVTKLLTPGTLTDDSMLPAKRNNFLAAIAMVEDKWGLAHADISTGEFFTCQSSNLDDLAVELLRLQPSEVLIPTSAPDIRNILRPGEPSEHIPKQLPTSFCYSLRSQAPFSLVEAKQRLLTTFRVKSLEGMGCEGLPLAIRAAGGLLEYIEDTQKAHVVPIQPLKTYGLTDFLVLDHQTRRNLEINQTVRDGSFHGSLLWALDRTSTTMGSRALRRWLLQPLLDLKGIQARQDTIQELYHHPALRQDLRQLLRQIYDLERLTGRIGANTASARDVYGLASSLVRLTDLAELAQEGHSPYLKALQTVPPELEELGKYVLAHIVENPPLHIREGNLIRSGVNPTLDEMRQSLEDDNQWLANLEVTEREKTGIANLKVGYNKAFGYYLSLPRSKSEQAPDNYIRKQTLVNEERYITPELKERETRILTAQADLNQLEYEIFTEVRATVAEKAQPIRDVAKAVAAIDVLAGLAEVAVYQGYCRPIMQMEPGLIDIEAGRHPVVEQSLGAGFFVANDTQLGHDHWHPDLVILTGPNASGKSCYLRQVGLIQLMAQTGSFIPAKTATLSICDRIFTRVGAVDDLATGQSTFMVEMNETANILNHATAKSLVLLDEIGRGTATFDGLAIAWSVAEYLAGEIQARTIFATHYHELNELASLLENVANFQVTVKELPEEIIFLHQVTPGGADKSYGIEAGRLAGLPSSVITRARQVMAQIEKHSKIAVGLRKGNRGKVMASQAAAEAAEDQAKQLDIFGF” it was “failed”; in that of “MITRSEIFEYAEKTFGAKPDYPFKTYPHYAILRHLDDQKWFGLVMNVPKDKLGLEGEGDVDVIDIKCHPDKVHDLKIKAGFLPAYHMNKEHWLTAVLDGSVTKEEVFSLLAESYELTK”, “failed”; in that of “MIHDLLLACRSHNPEQLGIKAFNETTVIDQFIHPCEREIFMDIIKIIKVYQEVEQFTHSSGRKSDTHGELPDSLHGYYLLNLAKGIEMALEEYYAEIGRLEKYCLGNERNSLSYVYNALYAKFPLLVFMRNLITEIHVLNLRGCVLLHNLHQQCEHGDIQLEKAIKIIMKPVKNAFFSSLAHWLLFGVIDDVHSEFFIKFTPTDAVDGSSFSKSATCSLLSAEKNPEDYIWQYEVNMSQLPGFFSIVLAEKVLFVGQTVLVFKMGRNVKVKNKTDPLAAKLAELDSDDIYQLWSGRESEFFKMVVDLSNEDTINVFRLEKVIIDIKNYVSARLSEIAVNEVDLERQMGLIKDFFLLGRGEFYLEFCSQMVGTMETYREERFKNVTRSFELAATVTGITDDLDKFSLICQRSTSEPDDTSDFNFLQGLSLKYEYEWPLNLLFSPTTIERYNNIFRFLLIIRTYQYEIQRVWAKQTWRAKSAKDVPPNNKIITLRNYLMFFLNNMQYYIQVDVLESQFGILMNVIKSRSDFEVIQRAHTVFLANVLSHCFLLNESETQLNVTGSQNRNPIYGTLLKLFGICEKFAHMTQTKDPSDDLEDEVDQLNESFGVQIASLIQLLVDVKSASCLGPLSQLLLRLDFNCWFSASHNTSA”, “failed”.
